Experimental findings from paper PMC3251506 are described below.

This assay deals with Epstein-Barr virus glycoprotein H / glycoprotein L complex (gH/gL), wild type (Epstein-Barr virus) (UniProt P03231). Briefly: CELISA.

On to “Epstein-Barr virus glycoprotein 42 (gp42), wild type, soluble form in medium (from UniProt P03205) (natural protein)”, for which the percent decrease of gH/gL binding to HEK 293 cells by soluble gp42 came to 50%.
